Measurements: patent publication US20090246142A1, “Triggered Self-Assembly of Nanoparticles In Vivo” (MASSACHUSETTS INSTITUTE OF TECHNOLOGY, priority 2006, published 2009)

Molecular target: TAMRA-C(Ahx)QpYDHPNI-CONH2 (CRK SH2-binding phosphopeptide) on nanoparticles (pY-peptide TSACs)
Test: DLS of nanoparticle assembly, 12 nM TSACs, both partners polyvalent on particles

hydrodynamic radius increase: 10 fold
Substance: Crk SH2 domain with an N-terminal cysteine (cys-SH2), conjugated to iron oxide nanoparticles (SH2 TSACs) (from UniProt P46108 13-118)
